Measured values reported in US20260008817A1, “CYCLIC PEPTIDE OR SALT THEREOF, AND USES THEREOF” (FUJIFILM Corporation, priority 2023, published 2026).
Positions of bridges follow the written chain, without caps; N, C: chain ends. No end group written: not given here. COCH2 = acetyl group that carries the bridge

What was measured:
[1] = target: Recombinant Human FGFR1 alpha (IIIc) Fc Chimera Protein, CF (R&D systems, 658-FR-050) (human) (UniProt P11362); test: SPR grade, peptide 10 nmol/L over FGFR1-Fc; details: scale: moleculesofcyclicpeptide/onemoleculeoffgfr
[2] = target: T1, FGFR4 Protein, Human, Recombinant (His Tag) (Sino Biological, 10538-H08H) (human, UniProt P22455 22-369); test: SPR grade, FGFR 1 umol/L over immobilized peptide
T1 construct: bought; flowed at 1 umol/L over immobilized peptide
T1 sequence (looked up): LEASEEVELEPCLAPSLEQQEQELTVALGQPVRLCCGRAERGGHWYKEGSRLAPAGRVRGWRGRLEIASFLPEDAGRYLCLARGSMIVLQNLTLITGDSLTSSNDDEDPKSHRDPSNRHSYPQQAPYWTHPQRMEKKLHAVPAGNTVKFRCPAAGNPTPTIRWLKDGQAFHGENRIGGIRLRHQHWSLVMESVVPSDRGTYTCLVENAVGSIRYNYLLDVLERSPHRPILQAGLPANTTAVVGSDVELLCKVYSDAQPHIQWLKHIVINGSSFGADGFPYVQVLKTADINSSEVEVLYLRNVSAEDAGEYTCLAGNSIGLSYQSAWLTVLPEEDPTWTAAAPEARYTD
Procedure: (§1) A CM5 sensor chip (Cytiva, 29149603) was set in Biacore-T200 (manufactured by Cytiva) which is a surface plasmon resonance device, and an HBS-EP buffer (Cytiva, BR100826) was added as a running buffer at a flow rate of 10 μL/min to equilibrate the flow channel. Next, 70 μL of a mixed aqueous solution of 0.2 mol/L 1-(3-dimethylaminopropyl)-3-ethylcarbodiimide (EDC) and 0.05 mol/L N-hydroxysuccinimide (NHS) was added to activate the sensor chip. Then, a cyclic peptide prepared to 2 mg/mL in HBS-EP buffer was added thereto to perform immobilization at about 200 RU. Thereafter, the blocking treatment was performed with an ethanolamine solution. In addition, in another flow channel of the same sensor chip, blocking treatment was performed immediately after activation without […].
(§2) After various FGFRs (FGFR1 Protein, Human, Recombinant (His Tag) (Sino Biological, 10616-H08H), FGFR3 Protein, Human, Recombinant (ECD, His Tag) (Sino Biological, 16044-H08H), FGFR4 Protein, Human, Recombinant (His Tag) (Sino Biological, 10538-H08H)) diluted with HBS-EP to 1 μmol/L at 25° C. was added to each flow channel of the cyclic peptide-immobilized sensor chip prepared above, for 10 minutes, HBS-EP was allowed to flow as a running buffer for 30 minutes, and the binding of various FGFRs to the cyclic peptide was measured. […] The binding amount of the cyclic peptide was evaluated from the difference between the measured value of Biacore-T200 in the flow channel in which the cyclic peptide was immobilized and the measured value of Biacore-T200 in the flow channel in which the cyclic peptide was not immobilized, in a case where 1 μmol/L FGFR was allowed to flow.
(§3) The binding amount of FGFR evaluated above was normalized to the binding amount of FGFR molecules per one molecule of the cyclic peptide using the molecular weights of the cyclic peptide and FGFR, and the binding affinity to FGFR was evaluated according to the following evaluation criteria.

[3] = target: T2, FGFR1 Protein, Human, Recombinant (His Tag) (Sino Biological, 10616-H08H) (human, UniProt P11362-7 22-374); test: SPR grade, FGFR 1 umol/L over immobilized peptide
T2 construct: bought; flowed at 1 umol/L over immobilized peptide
T2 sequence (looked up): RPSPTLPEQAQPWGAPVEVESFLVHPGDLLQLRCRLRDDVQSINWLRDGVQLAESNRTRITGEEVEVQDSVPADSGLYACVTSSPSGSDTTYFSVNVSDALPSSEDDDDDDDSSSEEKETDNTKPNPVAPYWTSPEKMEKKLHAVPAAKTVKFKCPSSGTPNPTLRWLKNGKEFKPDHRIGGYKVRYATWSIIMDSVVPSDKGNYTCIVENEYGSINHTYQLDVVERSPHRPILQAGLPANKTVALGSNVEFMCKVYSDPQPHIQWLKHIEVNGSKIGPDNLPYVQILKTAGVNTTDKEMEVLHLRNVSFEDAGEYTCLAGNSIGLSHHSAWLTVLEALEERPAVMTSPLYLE
Procedure: as §1, §2, §3

[4] = target: T3, FGFR3 Protein, Human, Recombinant (ECD, His Tag) (Sino Biological, 16044-H08H) (human, UniProt P22607 23-375); test: SPR grade, FGFR 1 umol/L over immobilized peptide
T3 construct: extracellular domain; bought; flowed at 1 umol/L over immobilized peptide
T3 sequence (looked up): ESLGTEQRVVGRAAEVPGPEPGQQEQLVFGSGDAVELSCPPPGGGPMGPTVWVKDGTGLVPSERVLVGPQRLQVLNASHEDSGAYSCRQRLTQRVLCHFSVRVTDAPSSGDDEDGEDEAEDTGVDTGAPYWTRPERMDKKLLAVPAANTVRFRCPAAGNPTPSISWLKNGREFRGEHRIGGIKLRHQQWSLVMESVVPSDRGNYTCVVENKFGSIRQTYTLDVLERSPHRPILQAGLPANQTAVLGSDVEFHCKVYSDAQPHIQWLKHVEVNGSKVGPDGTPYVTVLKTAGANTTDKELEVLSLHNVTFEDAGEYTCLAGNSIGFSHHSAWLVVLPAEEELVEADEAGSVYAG
Procedure: as §1, §2, §3

binding amount (SPR, molecules of cyclic peptide bound per one molecule of FGFR at 10 nmol/L peptide) [1]: > 0.7 | binding amount (SPR, molecules of FGFR per one molecule of cyclic peptide, at 1 umol/L FGFR) [2]: ≥ 0.05 moleculesoffgfr/onemoleculeofthecyclicpeptide | binding amount (SPR, molecules of FGFR per one molecule of cyclic peptide, at 1 umol/L FGFR) [3]: ≥ 0.05 moleculesoffgfr/onemoleculeofthecyclicpeptide | binding amount (SPR, molecules of FGFR per one molecule of cyclic peptide, at 1 umol/L FGFR) [4]: 0.01 to 0.05 moleculesoffgfr/onemoleculeofthecyclicpeptide
Binder: ACVWTFDRHAQEISQALHK(COCH2)VKKK (thioether 2-19, chemically synthesized) [cyclic peptide SEQ ID NO: 335]
